Paper PMC12241602

Each substance was assayed against His6-MadB (class I lantibiotic dehydratase MadB) (Clostridium sp. Maddingley) (assay: ITC; 200 uM leader variant in the syringe titrated into 20 uM MadB dimer in the cell, 20 injections of 2 uL, 25 °C, 50 mM HEPES, 500 mM NaCl, pH 7.5).
For “MadL1 (isolated leader peptide of maddinglicin A)”, the Kd was 0.41 µM and the stoichiometry N (LP per MadB dimer) was 1.
“MadL2 (leader peptide of MadA with the first five residues of the core peptide)” showed a Kd of 0.32 µM and a stoichiometry N (LP per MadB dimer) of 1.
“MadL3 (leader peptide of MadA with the first ten residues of the core peptide)” showed a Kd of 0.15 µM and a stoichiometry N (LP per MadB dimer) of 1.

The substances below were run against MadB, class I lantibiotic dehydratase of maddinglicin (His6-MadB) (Clostridium sp. Maddingley) (assay: ITC; leader variant (200 µM, syringe, 20 injections of 2 µL) titrated into MadB (20 µM of the dimer, cell); 25 °C; 50 mM HEPES, 500 mM NaCl, pH 7.5; N counts leader peptide per MadB dimer; at least triplicate, error S.D.).
In the case of “MadL1, isolated leader peptide of maddinglicin A (MadA), residues -23 to -1”, the stoichiometry N is reported as 1.21.
“MadL2, leader peptide of maddinglicin A with the first five residues of the core peptide, residues -23 to +5” gave a stoichiometry N of 0.89.
In the case of “MadL2_VSVS, MadL2 with the lysines K-12 and K-10 of the VKVK motif changed to serine (peptide)”, the stoichiometry N is reported as 1.12.
For “MadL3, leader peptide of maddinglicin A with the first ten residues of the core peptide, residues -23 to +10”, the stoichiometry N was 0.97.
